Measured values: patent US7358040B2, “MRE 11: modulation of cellular proliferation” (Rigel Pharmaceuticals, Incorporated, priority 2001, dated 2008)
Where a chain is given by its changes, count along the chain named. Names may count otherwise.

Key:
Type in all cases: cell-based
normal cells [1] = test: overexpression proliferation assay in normal cells
Text: (§1) As described below, the present inventors identified MRE11 in a yeast two hybrid assay, using PCNA as bait. Another molecule, NBS1, was identified in the two-hybrid assay as a PCNA-binding protein, as NBS1 binds the mammalian homolog of yeast RAD50, which also binds to MRE11 (see, e.g., Petrini, Am. J Hum. Genet. 64:1264-1269 (1999); Kim et al., J. Biol. Chem. 271:29255-29264 (1996); see also GenBank Accession number XP—034864 for a protein sequence of human RAD50 and Accession number XM—034864 for a nucleic acid sequence of human RAD50; see also Example 1)). NBS1 therefore bound to the RAD50/MRE11 complex, as well as to PCNA. As shown in FIGS. 8-15, inhibition of MRE11 or overexpression of an MRE11 mutant is antiproliferative in tumor cells and HeLa cells but not in normal cells (using, e.g., GFP positivity assays, cell tracker assays, and antisense assays).
(§2) In another embodiment, MRE11 protein is expressed in a cell, and functional, e.g., physical and chemical or phenotypic, changes are assayed to identify MRE11 and modulators of cellular proliferation, e.g., tumor cell proliferation. Cells expressing MRE11 proteins can also be used in binding assays and enzymatic assays. Any suitable functional effect can be measured, as described herein. […]

normal cells [2] = test: cell tracker assay in normal cells
Text: as §1, §2

A549 tumor cells [3] = test: bleomycin chemosensitization study in A549 tumor cells
Text: as §1

A549 tumor cells [4] = test: cell tracker assay in A549 tumor cells
Text: as §1, §2

HeLa cells [5] = test: overexpression / GFP positivity proliferation assay in HeLa cells
Text: as §1, §2

A549 tumor cells [6] = test: overexpression / GFP positivity proliferation assay in A549 tumor cells
Text: as §1, §2

HeLa cells [7] = test: bleomycin chemosensitization study in HeLa cells
Text: as §1

normal HMEC cells = test: bleomycin chemosensitization study in normal HMEC cells
Text: as §1

B1: MRE11 wild type: wild-type human MRE11 protein (SEQ ID NO:2) overexpressed in cells (protein, listed as Homo sapiens)
chain: MSTADALDDENTFKILVATDIHLGFMEKDAVRGNDTFVTLDEILRLAQENEVDFILLGGDLFHENKPSRKTLHTCLELLRKYCMGDRPVQFEILSDQSVNFGFSKFPWVNYQDGNLNISIPVFSIHGNHDDPTGADALCALDILSCAGFVNHFGRSMSVEKIDISPVLLQKGSTKIALYGLGSIPDERLYRMFVNKKVTMLRPKEDENSWFNLFVIHQNRSKHGSTNFIPEQFLDDFIDLVIWGHEHECKIAPTKNEQQLFYISQPGSSVVTSLSPGEAVKKHVGLLRIKGRKMNMHKIPLHTVRQFFMEDIVLANHPDIFNPDNPKVTQAIQSFCLEKIEEMLENAERERLGNSHQPEKPLVRLRVDYSGGFEPFSVLRFSQKFVDRVANPKDIIHFFRHREQKEKTGEEINFGKLITKPSEGTTLRVEDLVKQYFQTAEKNVQLSLLTERGMGEAVQEFVDKEEKDAIEELVKYQLEKTQRFLKERHIDALEDKIDEEVRRFRETRQKNTNEEDDEVREAMTRARALRSQSEESASAFSADDLMSIDLAEQMANDSDDSISAATNKGRGRGRGRRGGRGQNSASRGGSQRGRADTGLETSTRSRNSKTAVSASRNMSIIDAFKSTRQQPSRNVTTKNYSEVIEVDESDVEEDIFPTTSKTDQRWSSTSSSKIMSQSQVSKGVDFESSEDDDDDPFMNTSSLRRNRR
modifications: human MRE11 meiotic recombination 11 homolog A
- antiproliferative activity on overexpression (normal cells [1]): not antiproliferative
- antiproliferative activity, cell tracker assay (normal cells [2]): no antiproliferative activity
- selective sensitization after bleomycin treatment (A549 tumor cells [3]; tumor cells expressing the protein, 48 hours after bleomycin treatment): no selective sensitization

B2: GFP-fused MRE11 H129N mutant: GFP-fused dominant negative H129N mutant of MRE11 nuclease, overexpressed in cells for target validation (protein, UniProt P49959 2-708, looked up, variant H129N)
Double-strand break repair …: STADALDDENTFKILVATDIHLGFMEKDAVRGNDTFVTLDEILRLAQENEVDFILLGGDLFHENKPSRKTLHTCLELLRKYCMGDRPVQFEILSDQSVNFGFSKFPWVNYQDGNLNISIPVFSIHGNNDDPTGADALCALDILSCAGFVNHFGRSMSVEKIDISPVLLQKGSTKIALYGLGSIPDERLYRMFVNKKVTMLRPKEDENSWFNLFVIHQNRSKHGSTNFIPEQFLDDFIDLVIWGHEHECKIAPTKNEQQLFYISQPGSSVVTSLSPGEAVKKHVGLLRIKGRKMNMHKIPLHTVRQFFMEDIVLANHPDIFNPDNPKVTQAIQSFCLEKIEEMLENAERERLGNSHQPEKPLVRLRVDYSGGFEPFSVLRFSQKFVDRVANPKDIIHFFRHREQKEKTGEEINFGKLITKPSEGTTLRVEDLVKQYFQTAEKNVQLSLLTERGMGEAVQEFVDKEEKDAIEELVKYQLEKTQRFLKERHIDALEDKIDEEVRRFRETRQKNTNEEDDEVREAMTRARALRSQSEESASAFSADDLMSIDLAEQMANDSDDSISAATNKGRGRGRGRRGGRGQNSASRGGSQRGRADTGLETSTRSRNSKTAVSASRNMSIIDAFKSTRQQPSRNVTTKNYSEVIEVDESDVEEDIFPTTSKTDQRWSSTSSSKIMSQSQVSKGVDFESSEDDDDDPFMNTSSLRRNRR
modifications: GFP fusion
notes: GFP-fused dominant negative H129N mutant of MRE11 nuclease, overexpressed in cells for target validation
- antiproliferative activity, cell tracker assay (A549 tumor cells [4]): antiproliferative
- antiproliferative activity on overexpression (HeLa cells [5]): antiproliferative
- antiproliferative activity on overexpression (A549 tumor cells [6]): antiproliferative

B3: MRE11 H129N mutant: MRE11 H129N mutant expressed using IRES GFP (not fused) (protein, UniProt P49959 2-708, looked up, variant H129N)
Double-strand break repair …: B2 Double-strand break repair …
- antiproliferative activity, cell tracker assay (A549 tumor cells [4]): antiproliferative

B4: GFP-MRE11 H217Y mutant: GFP-fused MRE11 H217Y mutant overexpressed in cells (protein, UniProt P49959 2-708, looked up, variant H217Y)
Double-strand break repair …: B2 Double-strand break repair … with N128H, H216Y
modifications: GFP fusion
notes: GFP-fused MRE11 H217Y mutant overexpressed in cells
- sensitivity to bleomycin treatment on overexpression (HeLa cells [7]): enhances sensitivity
- sensitivity to bleomycin treatment on overexpression (A549 tumor cells [3]; A549 tumor cells): enhances sensitivity
- sensitivity to bleomycin treatment on overexpression (normal HMEC cells): does not enhance sensitivity
